Molecular target: biotinylated EpoR (Abbott CHO cell derived ref.#RB69084:4) (UniProt P19235)
Experiment: immunofluorescence microscopy on EpoR-coated sheep red blood cells, MAB307 at 20 ug/ml

Sequence of biotinylated EpoR (Abbott CHO cell derived ref.#RB69084:4) (P19235 25-250 limits assumed): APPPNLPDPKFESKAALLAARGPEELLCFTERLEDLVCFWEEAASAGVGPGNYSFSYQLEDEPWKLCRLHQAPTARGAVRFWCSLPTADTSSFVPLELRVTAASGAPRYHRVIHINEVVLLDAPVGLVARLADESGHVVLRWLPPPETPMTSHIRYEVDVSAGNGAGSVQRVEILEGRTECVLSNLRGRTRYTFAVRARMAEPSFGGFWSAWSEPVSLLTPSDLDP

## murine anti-EpoR antibody (R&D Systems Cat. #MAB307)
  immunofluorescence score (arbitrary scale of 0-4): 4 of 4

Source: patent publication US20040175379A1
